Laboratory results published in the nanobody polyreactivity screen of Harvey et al. (2022).

Assay: yeast display, Sf9 membrane polyspecificity reagent, FACS + sequencing; frameworks hold sequencing errors
Procedure, shortened: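 Using colony PCR, genes from sorted yeast display clones were amplified, then sequenced on MiSeq at 2 × 250 and filtered by CDR length. The clones had been stained with 10% biotinylated, detergent-solubilized Sf9 membrane reagent for 1 hour at 4 °C and sorted by FACS into low and high (top ~1%) gates on anti-HA and streptavidin fluorescence. Polyreactivity labels come from the gate of origin.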

Row | Sequence | polyreactivity (PSR sort gate)
1 | QVQLVESGGGLVQAGGSLRLSCAASGSIFYENAMGWYRQAPGKEREFVATIDLIGDRTYYADSVKGRFTISRDNAKNTVYLQMNCLKPEDTAVYYCAAERVGVFFRYDYWGQGTQVTVSS | low polyreactivity
2 | QVQLVESGGGLVQAGGSLRLSCAASGRIFWYNGKGWYRQAPGKERELVAAISYSGGSTNYADSVKGRFTISRDNAKNTVYLQMNSLKPEATAVYYCAAPVPTYHTAWRFFRPDYGYWGQGTQVTVSS | high polyreactivity
3 | QVQLVESGGGLVQAGGSLRVSCAASGFTFSYYVMGWYRQAPGKERELVAAITTSGSGTYYADSVKGRFTISRDNAKNTVYLQMNSLKPEDTAVYYCAARPYRGFVSRYGYWGQGTQVTVSS | low polyreactivity
4 | QVQLVESGGGLVQAGGSLRLSCAASGYIFGYNAMGWYRQAPGKERELVATINSSDSTNYADSVKGRFTISRDNAKNTVYLQMNSLKPEDTAVYYCNKDHVRRSYPYDYWGQGTQVTVSS | low polyreactivity
5 | QVQLVESGGGLVQAGGSLRLSCAASGLIFVPYAMGWYRQAPGKERELVAAINSGATTYYADSVKGRFTISRDNAKNTVYLQMNSLKPEDTAVYYCAARSRFTESSRYYYWGQGTQVTVSS | high polyreactivity
6 | QVQLQVSGGGLVQAGGNLRLSCAASGTISDSVGMGWYRQAPGKEREFVAGITLGGITNYADSVRGRFTISRDNGKNLYLQMKSLKPEETAVYYCAVDDYRYINYEFWGQGTQVTVSS | high polyreactivity
7 | QVQLVESGGGLVQAGGSLRLSCAASGFTFFKYAMGWYRQAPGKERELVAAISSSGGSTYYADSVKGRFTISRDNAKNTVYLQMNSLKPEDSAVYYCNRPAAVYFKLVTAYDYWGQGTQVTVSS | high polyreactivity
8 | QVQLVESGGGLVQAGGSLRLSCAASGSTFARYAMGWYRQAPGKDREFVAVSTSGGSTYYADSVNGRFTISRDNAKNPVYLQMNSLKPEDTAVYYCAAQSYFVFGSYRRYYGYDYWGQGTQVTVSW | high polyreactivity
9 | QVQLVESGGGLVQAGGSLRLSCAASGSIFNYSAMGWYRQARGKERELVAGITTSGGSTYYADSVKGRFTISRDNAKNTVYLQMNSLKPEDTAVYYCAAYDYISSTYFLDDYWGQGTQVTVSS | low polyreactivity
10 | QVQLVESGGGLVQAGGSLRLSCAASGRIFDQYAMGWYRQAPGKERELVAAITSGGSTYYADSVKGRFTISRDNAKNTVYLQMNSLKPEDTAVYYCAAEWQWYGYVLYKYYYWGQGTQVTVSS | high polyreactivity
11 | QVQLVESGGGLDQAGGSLRLSCAASGISFIIYVMGWYRQAPGKERELVAAISSTGSTYYADSVKGRFTISRDNAKNTVYLQMNSQKPEDTAVYYCAKRKFTARQRYNYWGQGTQVTVSS | high polyreactivity
12 | QVQLEESGGGLVQAGGSLRLSCAASGRTSYGYAMGWYRQAPGKERELVAAISSGGRTNYADSVKGRFTISRDNAKNTVYLQMNSLKPEDTAVYYCAKRYRYRPSYDYWGQGTQVTVSS | high polyreactivity
13 | QVQLVESGGGLVQAGGSLRLSCAASGSTFGNYAMAWYRQAPGKERELVATISRSGGSTYYADSVKGRFTISRDNAKNTVYLLMNSLKPEDTAVYYCNRRYYTRKPDYNSWGQGTQVTVSS | high polyreactivity
14 | QFQLVESGGGLVQAGGSLRLSCAASGSIFRENAMGWYRQAPGKEMELVAAIYVRDGDTFYADSVKGRFTISRDNAKNTVYLQMNSLKPEDTAVYYCAADQQKWYTGYDYWGQCTQVTVSS | low polyreactivity
15 | QVQLVESGGGLVQAGGSLRLSCAASGRILTRNALGWYRQAPGKERELVAAISTSGGRTYYADSVKGRFTISRDNAKNTVYLEMNSLKPEDTAVYYCAAYSASYGGYDYWGQGTQVTVSS | high polyreactivity
16 | QVQLVESGGGLVQAGGSLRLSCPASGIIFKGYAMGWYRQAPGKERELVAAISQSGGSTYYADSVKGRFTISRDNAKNTVYLQMNSLKPEDTAVYYCNARYSRVVPRYYYWGQGTQVTVSS | high polyreactivity
17 | QVQLVESGGGLVQAGGSLRLSCASSGRIFGVYAMGWYRQAPGKERELVAAITRGASTYYADSVKGRFTISRDNAKNTVYLQMNSLKPEDTAVYYCAVSQHRGIYRKYDYWGQGTQVTVSS | high polyreactivity
18 | QVQLVESGGGLVQAGGSLRLSCAASGLTFYSYAMGWYRQAPGKERELVAAISSSGGNTYYADSVKGRFTISRDNAKNTVYLQMNSLKPEDTAVYYCNVYHWSRVFAIDYYWGQATQVTVSS | high polyreactivity
19 | QVQLEESGGGLVQAGGSLRLSCAASGSIFARNAMGWYRQAPGNERELVAAISTGGGSTYYADSVKGRFTISRDNAKNSVYLQMKSLKPEDTAVYYCNAGDTQIRFYYWGQGTQVSVSS | low polyreactivity
20 | HVQLVESGGGLVQAGGSRLLSCAASGFTIYANAMGWYSQAPGKERELVAAITWRGGSTYYADSVKVRFTISRDNAKNTVYLQMNSLKPADTAVYYCNALKGRPVRSYLASPSYRYEYWGQGTQVTVSS | high polyreactivity
21 | QVQLVESGGGLVQAGGSLRLSCAASGFTFSYYDMGWYRQAPGKERELVAAISSSASRTYYADSVKGRFTISRDNAKNTVYLQMNSLKPEDTAVYYCAARYSESRTGHLDYWGQGTQVTVSS | high polyreactivity
22 | QVQLVESRGGLVQAGGSLRLSCAASGRTFHRNAMGWYRQPPGKERELVAAITGDGRTNYADSVKGRFTISRDNAKNTVYLQMNSLKPVDTAVYYCAARFSYRSYDYWGQGTQVTVSS | low polyreactivity

Row | Sequence | polyreactivity (PSR sort gate)
23 | QVQLVESGGGLVQAGGSLRLSSAASGSIFVRNAMGWYRQAPGKERELVAAITSRVGSTYYADSVKGRFTISRDNAKNTVYLQMNSLKPEDTAVYYCAVVFAKRAWSRYDYWGQGTQVTVSS | high polyreactivity
24 | QVQLVESGGGLVQAGGSLRLSCAASGRTFVNNAMGWYRQAPGKERELVAAITRSGGRTYYADSVKGRFTISRDNAKNTVYLQMNSLKPEDTAVYYCATANVRLRHDDYWGQGTQVTVSS | high polyreactivity
25 | QVQLVESGGGLVQAGGSLRLSCAASGSTFKYYAMGWYRQAPGKERELVATITWSGTSTNYADSVKGRFTISRDNAKHTVYLQMHSLKPEDTAVYYCAARSKRRNYDYWGQGTQVTVSS | high polyreactivity
26 | QVQLVESGGGLVQGGGSLRLSCAASGSIFPGNAMGCYRQAPGKERELLAVIDFSGASTYYADSLKGRFTISRDNAKNTVYLQMKSLKPEATAVYWGQGTQVTVSS | low polyreactivity
27 | QVQLVESGGGLVQAGGSLRLSCAASCRIFSYYVMGWYRQAPGKERELVAAISYRGGGTYYADSVKGRFTISRDNAKNNFYLQMNSLKPEDTAVYYCNADTYSNTYRAYDYWGQGTQVTVSS | low polyreactivity
28 | QVQLVESGGGLVQAGGSLRLSCAASGSIFAANAMGWYRQAPGKERELVAAISRSGNTYYADSVKGRFTISRDNAKNTVYLQMNSLKPEDTAVYYCAARRDAYGRTYGYWGQGTQVTVSS | high polyreactivity
29 | QGQLVESGGGLVQAGGSLRLSCAASGNTFWYYAMGWYRQAPGKEREVVATISSSGGSTSYAHSVKGRFTISRDNAKNTVYLQMNSLKPVDTAVYYCAKPIRYFAAYPLTKGYYYWGQCTQVTVSS | high polyreactivity
30 | QVQLVESGGGLVQAGGSLRLSCAASGFIFRYYAMGWYRQAPGKERELVAAISSGGGTTYADSVKGRFTISRDNAKNTVYLQMNSLKPEDTAVYYCAAVSYYARYTYGYDYWGQGTQVTVSS | high polyreactivity
31 | QVQLVESGGGLVQAGGSLRLSCAASGNIFYGYAMGWYRQAPGKERELVAAISGSSTYYADSVKGRFTISRDNAKNTVYLEMNSLKPEDTAVYYCAVPQYLYLQAGHGYRYYYWGQGTQVTVSS | high polyreactivity
32 | QVQLVESGGGLVQAGGSLRLSCAASGSTFTPYVMGWYRQAPGKERELVASITGGGGSTYADSVKGRFTISRDNAKNTVYLQMNSLKPEDTAVYYCGARVWRSYNYWGQGTQVTVSS | high polyreactivity
33 | QVQLVESGGGLVQAGGSLRLSCAASGRIFYYNAMGWFRQAPGQERELVAAITSGGSTNYADSVKGRFTISRDNAKNTVYLQMNSLTPEDTAVYYCNARRYGSPRSEVHYDYWGQGTQVTVSS | low polyreactivity
34 | QVQLVESGGGLVQAGGSLRLSCAASRNIFRYYVMGWYRPAPGKEREFVAAISYRAGSTYYADSVKGSFTISRDNAKNTVYLQMNSLKPEDTAFYYCNAERTRDFYEYDYWGQGTQVTVSS | low polyreactivity
35 | QVQLVESGGGLVQAGGSLRLSCAASGYTIYYYAMGWYRQAPGKERELVARITSGGSTYYADSVKGRFTISRDNAKNTVYLQMNSLKPVDTAVYYCNVEVSVEVAYWGQGTQVTVSS | low polyreactivity
36 | QVQLVESGGGLVQAGGSLRLSCAASGSIFPFNAMGWYRQAPGKERELVAAISRRGTGTYYADSVKGRFTISRDNAKNTVYLQMNSLKPEDTAVYYCNAVVRAGHYDYWGQGTQVTVSS | high polyreactivity
37 | QVQLGESGGGLVEAGGSLRLSCAASGSTCKFYVMGWYRQAPGKERELVAAIAIGGSTNYADSVKGRFTISRDNAKNTVSVQMNSLKPEDTAVYYCAAELLQIHYYYVYLSPSFKCDYWGQGTQVTGSS | low polyreactivity
38 | QVQLVESGGGLVQAGGSLRLSCAASGRTFRYYTMGWYRQAPGKEREFVAAISSTGGTYYADSVKGRFTISRDNAKNTVYLQMNSQKPEDTAVYYCAATVIQVVVNVQLYDYDYWGQGTEVTVSS | low polyreactivity
39 | QVQLVESGGGLVQAGGSLRLSCAASGFIFPQYAKGWYRQAPGKERELVAAISTGGGSTYYADSVKGRFTISRDNAKNTVYLQMNSLKPEDTAVYYCNARPKYDSGHYYWGQGTQVTVSS | high polyreactivity
40 | QVQLVESGGGLVQAGGSLRLSCAASGSISLLYAMGWYRQAPGKDRELVAAISSGTDDTYYADSVKGRFTISRDNAKNTVYLQMNSLKPEDTAVYYCAADPLFKDDLWPVRVRVDYWGQGTQVTVSS | low polyreactivity
41 | QVQLVESGGGLVQAGGSLRLSCAASGSTIPPYAMGWYRQAPGNERELVAAITSGGSTYYADSVKGRFTISRDNAKNTVYLQMNSLKPEDTAVYYCAASWDPWEYDYWGQGTQVTVSS | low polyreactivity
42 | QVQLVESGGGLVQAGGSLRLSCAASGIIFTTYDMGWYRQAPGKERELVAAISSSTTNTYYADSVKGRFTISRDNAKNTVYLQMNSLKPEDTAVYYCAADGYSLDRYEYWGQGTQVTVSS | low polyreactivity
43 | QVQLVESGGGLVQAGGSLRLSCAASGRTFGRYVMGWYRQAPGKERELVAAITSSSSSTYADSVKGRFTISRDNAKNTVHLEMNSLKPEDTAVYYCNKRFPSRHRPEYDYWGQGTQVTVSS | high polyreactivity
